We go through 4 molecules from PMC5570508, “Structural analysis of P. falciparum KAHRP and PfEMP1 complexes with host erythrocyte spectrin suggests a model for cytoadherent knob protrusions” (PLoS Pathogens, 2017).

T1: spectrin β chain domains 10–14 (human, UniProt P11277 1272-1804)
T1 construct: human erythrocyte β spectrin, UniProt P11277, residues 1272-1804; also called β10–14; source: E. coli Rosetta2(DE3), purified (Talon, Q-Sepharose, Superdex 75 or 200); not shown: His10 or His6 (modified pET16b or pET15b), N-terminal, cleaved
T1 sequence (looked up): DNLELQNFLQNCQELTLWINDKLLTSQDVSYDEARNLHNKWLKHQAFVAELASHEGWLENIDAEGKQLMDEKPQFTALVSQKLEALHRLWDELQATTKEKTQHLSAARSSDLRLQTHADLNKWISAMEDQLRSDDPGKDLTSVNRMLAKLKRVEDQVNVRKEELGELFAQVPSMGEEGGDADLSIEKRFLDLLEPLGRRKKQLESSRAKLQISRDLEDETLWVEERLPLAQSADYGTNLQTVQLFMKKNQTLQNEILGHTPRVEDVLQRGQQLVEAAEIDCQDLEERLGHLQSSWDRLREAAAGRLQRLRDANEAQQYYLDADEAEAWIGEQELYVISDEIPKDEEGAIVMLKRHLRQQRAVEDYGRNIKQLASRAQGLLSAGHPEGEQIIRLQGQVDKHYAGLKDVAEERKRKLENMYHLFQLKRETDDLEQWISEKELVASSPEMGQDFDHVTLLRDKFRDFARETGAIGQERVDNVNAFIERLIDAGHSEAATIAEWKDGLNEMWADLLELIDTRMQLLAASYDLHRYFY

B1: KAHRP 5´-repeat scrambled sequence, Scramble 3 (peptide)
chain: CHDNKGKKSHDSSGDKKHKNKKSKKKKESPTVDKKEKHEVKKKHKNKKDDVHSEEASKEENKKTEKGKNEKESNAKKSKNSHHDSKKGKEHEGSSKNKDHDKKEKNSDESKKGES
modifications: 5-carboxyfluorescein (5-FAM) on a single cysteine at the protein N-terminus
notes: amino acid content of the KAHRP 5´ repeat, randomly scrambled; also called scrambled peptide; source: E. coli, recombinant, purified as the KAHRP fragments; not shown: His10, N-terminal, cleaved
B2: KAHRP 5´-repeat scrambled sequence, Scramble 4 (peptide)
chain: CESNKKNGHEKGGKKSESKHKKKDHAEKEPKNKKGAHHDDSDKSKTKHNSESDEKVHKSESKEKSKDKVGNKGKEKKVSNSEKKDKNKKDHSHSKETKEKDEKDKKHKSSNKENK
modifications: 5-carboxyfluorescein (5-FAM) on a single cysteine at the protein N-terminus
notes: as for B1
B3: KAHRP 5´-repeat scrambled sequence, Scramble 2 (peptide)
chain: CEKSDDKKESKSKHDGSVKKKSEEKKKDNESSTKSDGKNKKNKKHNEHESKHEHKGEGKKKEHGSNEDHKKKNDNEVKGKHKKSPKKKAETKKNSSHDSDKKEKDSSKKVHNEAK
modifications: 5-carboxyfluorescein (5-FAM) on a single cysteine at the protein N-terminus
notes: as for B1
B4: KAHRP 5´-repeat scrambled sequence, Scramble 1 (peptide)
chain: CGGSDNSEKNKKEHKKEKSAHEKEKDKKAEHKKDKDGSKKSSEKKKNSTKEHESSEHNHSEHKKSDNHKKKKENKEDDSEKEKNKKSDVVSDNKKTHKKGGKKKSKPKGNKSVHD
modifications: 5-carboxyfluorescein (5-FAM) on a single cysteine at the protein N-terminus
notes: as for B1

The test concerns the target T1, spectrin β chain domains 10–14. Description: fluorescence polarisation; titration: 5-FAM-labeled protein at 0.5 or 1 μM titrated with unlabeled protein; 20°C; analysis buffer (20 mM NaH2PO4, 50 mM NaCl, 1 mM DTT pH 7); single site binding model. To be noted: both partners purified. (In general: In fluorescence polarisation assays a small probe gives low polarisation when free and higher when bound to something large.)
As to B1, the binding result is “binds”.
As for B2, the binding result is reported as “binds”.
With B3, the binding result was “binds”.
Take B4: the binding result is listed as “binds”.
